Residue numbers refer to the chain shown, from its start. Names may count otherwise.
What was measured:
[1] = target: T1, recombinant human CD22 extracellular domain with C-terminal hexahistidine tag (human, UniProt P20273 20-687); test: SPR (BIAcore 3000); CD22 ECD-His captured by anti-His mAb on CM5 chip, antibody injected at 20 µg/mL
T1 construct: The whole entry is named here; also called CD22 ECD; CD22β extracellular domain
T1 sequence: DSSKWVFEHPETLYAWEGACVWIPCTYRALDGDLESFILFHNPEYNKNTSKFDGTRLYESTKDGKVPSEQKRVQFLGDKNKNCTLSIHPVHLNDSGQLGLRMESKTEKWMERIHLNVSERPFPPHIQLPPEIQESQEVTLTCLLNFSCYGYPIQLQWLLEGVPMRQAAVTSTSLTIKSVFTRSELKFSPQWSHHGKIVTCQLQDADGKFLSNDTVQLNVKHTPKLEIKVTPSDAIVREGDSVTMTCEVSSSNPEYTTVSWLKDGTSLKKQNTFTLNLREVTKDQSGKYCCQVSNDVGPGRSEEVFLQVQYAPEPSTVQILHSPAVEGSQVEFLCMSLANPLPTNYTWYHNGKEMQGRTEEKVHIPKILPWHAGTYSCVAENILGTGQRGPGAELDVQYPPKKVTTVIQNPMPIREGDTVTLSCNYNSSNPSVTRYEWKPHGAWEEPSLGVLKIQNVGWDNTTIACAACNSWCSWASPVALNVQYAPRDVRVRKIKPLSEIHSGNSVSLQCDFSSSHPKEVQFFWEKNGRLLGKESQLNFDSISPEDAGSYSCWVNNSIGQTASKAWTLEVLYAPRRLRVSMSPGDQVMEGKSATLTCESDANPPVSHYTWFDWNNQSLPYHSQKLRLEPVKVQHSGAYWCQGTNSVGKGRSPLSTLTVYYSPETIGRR
Procedure: For determination of antibody affinity (KD), experiments were performed in which the CD22 antigen was captured on a BIAcore chip using an antibody to the His tag present on the antigen. Anti-His monoclonal antibody ab15149 (Abcam, Stock conc.0.5 mg/mL) was coated on a CM5 chip at high density (3500RUs), as recommended by the manufacturer. CD22 ECD (6.6 μg/mL) was captured on this surface for 60 sec at a flow-rate of 6 μL/min. A single concentration (20 μg/mL) of anti-CD22 purified mAbs was injected over the captured antigen with an association time of 5 minutes and a dissociation time of 8 minutes, at a flow rate of […]. The chip surface was regenerated after each cycle with 10 μL of 25 mM NaOH. Isotype controls were run on the chip and the data used to subtract non-specific binding. All experiments were carried out on a BIAcore 3000 surface plasmon resonance instrument, using BIAcore Control software v 3.2. Data analysis was carried out using BiaEvaluation v. 3.2 software.
Fourteen of the selected anti-CD22 antibodies were tested in the affinity experiment.

[2] = target: T2, full-length human CD22 expressed on the cell surface (human, UniProt P20273 20-847); test: flow cytometry (FACS Array) on CHO cells transfected with full-length CD22, goat anti-human IgG-PE
T2 construct: One molecule is used both for CHO transfectants with the full-length CD22 cDNA and for endogenous CD22 on Raji/Daudi cells; also called CHO-CD22; CHO cells transfected with full-length CD22
T2 sequence (looked up): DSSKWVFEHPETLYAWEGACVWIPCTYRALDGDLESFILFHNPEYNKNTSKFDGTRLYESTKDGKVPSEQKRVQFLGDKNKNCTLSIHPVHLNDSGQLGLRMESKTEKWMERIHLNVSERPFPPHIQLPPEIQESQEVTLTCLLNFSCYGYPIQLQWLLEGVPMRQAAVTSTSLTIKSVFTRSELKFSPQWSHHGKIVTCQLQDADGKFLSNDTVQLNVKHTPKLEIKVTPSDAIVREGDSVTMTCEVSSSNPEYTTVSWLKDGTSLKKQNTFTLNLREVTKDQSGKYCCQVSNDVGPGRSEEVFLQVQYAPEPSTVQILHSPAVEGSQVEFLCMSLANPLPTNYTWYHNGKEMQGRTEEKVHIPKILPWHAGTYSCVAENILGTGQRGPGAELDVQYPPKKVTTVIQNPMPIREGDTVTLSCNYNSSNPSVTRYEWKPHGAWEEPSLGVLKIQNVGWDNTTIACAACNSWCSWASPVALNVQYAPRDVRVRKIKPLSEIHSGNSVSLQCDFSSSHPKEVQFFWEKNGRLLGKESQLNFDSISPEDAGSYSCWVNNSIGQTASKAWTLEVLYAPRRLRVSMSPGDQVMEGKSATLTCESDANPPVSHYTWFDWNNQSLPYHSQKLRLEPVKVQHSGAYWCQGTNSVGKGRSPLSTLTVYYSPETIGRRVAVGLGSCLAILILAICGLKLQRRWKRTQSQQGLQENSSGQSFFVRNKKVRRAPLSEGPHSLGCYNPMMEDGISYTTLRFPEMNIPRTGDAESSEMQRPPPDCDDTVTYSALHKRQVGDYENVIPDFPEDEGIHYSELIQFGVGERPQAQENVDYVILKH

B1: anti-CD22 human monoclonal antibody 12C5 (antibody, IgG1, V domains shown)
VH: QVQLVQSGSELKKPGASVKVSCKASGYTFTSYAMNWVRQAPGQGLEWMGWINTNTGNPTYAQGFTGRFVFSLDTSVSTAYLQISSLKAEDTAVYYCARLFYYYFGMDVWGQGTTVTVSS
VL: QSALTQPASVSGSPGQSITISCTGTSSDVGSYNLVSWYQLHPGKAPKLMIYEVSKRPSGVSNRFSGSRSGNTASLTISGLQAEDEADYYCCSYANSSTLVFGGGTKLTVL
notes: Hybridoma-derived
[1]
  Kd: 0.23 nM

B2: recombinant human anti-CD22 monoclonal antibody CD22.1 (antibody, human IgG1, V domains shown)
VH: QVQLQQWGAGLLKPSETLSLTCAVYGRSFSSYYWSWIRQPPGKGLEWIGDINHSGSTNYNPSLKSRVTISVDTSKNQFSLKLSSVTAADTAVYYCAGTFYDILTGYYPLGYWGPGTLVTVSS
VL: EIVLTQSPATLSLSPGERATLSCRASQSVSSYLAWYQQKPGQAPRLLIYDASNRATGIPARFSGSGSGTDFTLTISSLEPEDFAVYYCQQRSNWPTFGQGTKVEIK
notes: also called 19A3 expressed in CHO cells (clone 8G9)
[2]
  EC50 (read off the curve): ~0.3 µg/mL

B3: anti-CD22 human monoclonal antibody 19A3 (antibody, IgG1, V domains shown)
VH: B2 VH
VL: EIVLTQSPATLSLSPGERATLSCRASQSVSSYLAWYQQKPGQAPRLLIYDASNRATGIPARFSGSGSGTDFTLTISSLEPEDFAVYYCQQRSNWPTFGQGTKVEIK
notes: Hybridoma-derived; also called parental antibody 19A3
[1]
  Kd: 0.15 nM

B4: recombinant human anti-CD22 monoclonal antibody CD22.2 (antibody, human IgG1, V domains shown)
VH: B2 VH with N52Q
VL: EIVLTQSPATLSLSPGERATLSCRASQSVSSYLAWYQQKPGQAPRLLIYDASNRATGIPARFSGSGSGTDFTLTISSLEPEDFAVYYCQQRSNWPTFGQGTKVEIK
notes: Variant of 19A3 with N57Q, which removes the N-glycosylation site in VH CDR2; also called 19A3 VH N57Q variant (clone 17E11)
[2]
  EC50 (read off the curve): ~0.3 µg/mL

— patent US20100143368A1 (Bristol-Myers Squibb, published 2010)
